Legend:
SEC = biological target: the molecule itself; test: SEC
recombinant RBP4 = recombinant RBP4 (UniProt P02753 19-201); test: cross-linking
[1] = biological target: the molecule itself; test: single-molecule dual-color photobleaching
single-receptor tracking = biological target: the molecule itself; test: single-receptor tracking
[2] = biological target: the molecule itself; test: single-molecule photobleaching

B1: recombinant DR6 ECD (domain or fragment, UniProt O75509 42-349, looked up)
chain: QPEQKASNLIGTYRHVDRATGQVLTCDKCPAGTYVSEHCTNTSLRVCSSCPVGTFTRHENGIEKCHDCSQPCPWPMIEKLPCAALTDRECTCPPGMFQSNATCAPHTVCPVGWGVRKKGTETEDVRCKQCARGTFSDVPSSVMKCKAYTDCLSQNLVVIKPGTKETDNVCGTLPSFSSSTSPSPGTAIFPRPEHMETHEVPSSTYVPKGMNSTESNSSASVRPKVLSSIQEGTVPDNTSSARGKEDVNKTLPNLQVVNHQQGPHHRHILKLLPSMEATGGEKSSTPIKGPKRGHPRQNLHKHFDINEH
SEC
  binding result: binds
Recombinant RBP4
  stoichiometry N: 1

B2: DR6 ECD-Halo (domain or fragment, UniProt O75509 42-349, looked up)
chain: QPEQKASNLIGTYRHVDRATGQVLTCDKCPAGTYVSEHCTNTSLRVCSSCPVGTFTRHENGIEKCHDCSQPCPWPMIEKLPCAALTDRECTCPPGMFQSNATCAPHTVCPVGWGVRKKGTETEDVRCKQCARGTFSDVPSSVMKCKAYTDCLSQNLVVIKPGTKETDNVCGTLPSFSSSTSPSPGTAIFPRPEHMETHEVPSSTYVPKGMNSTESNSSASVRPKVLSSIQEGTVPDNTSSARGKEDVNKTLPNLQVVNHQQGPHHRHILKLLPSMEATGGEKSSTPIKGPKRGHPRQNLHKHFDINEH
modifications: Alexa Fluor 660 label
[1]
  stoichiometry N: 2

B3: quantum dot-labeled DR6, wild type (receptor, UniProt O75509 42-655, looked up)
chain: QPEQKASNLIGTYRHVDRATGQVLTCDKCPAGTYVSEHCTNTSLRVCSSCPVGTFTRHENGIEKCHDCSQPCPWPMIEKLPCAALTDRECTCPPGMFQSNATCAPHTVCPVGWGVRKKGTETEDVRCKQCARGTFSDVPSSVMKCKAYTDCLSQNLVVIKPGTKETDNVCGTLPSFSSSTSPSPGTAIFPRPEHMETHEVPSSTYVPKGMNSTESNSSASVRPKVLSSIQEGTVPDNTSSARGKEDVNKTLPNLQVVNHQQGPHHRHILKLLPSMEATGGEKSSTPIKGPKRGHPRQNLHKHFDINEHLPWMIVLFLLLVLVVIVVCSIRKSSRTLKKGPRQDPSAIVEKAGLKKSMTPTQNREKWIYYCNGHGIDILKLVAAQVGSQWKDIYQFLCNASEREVAAFSNGYTADHERAYAALQHWTIRGPEASLAQLISALRQHRRNDVVEKIRGLMEDTTQLETDKLALPMSPSPLSPSPIPSPNAKLENSALLTVEPSPQDKNKGFFVDESEPLLRCDSTSSGSSALSRNGSFITKEKKDTVLRQVRLDPCDLQPIFDDMLHFLNPEELRVIEEIPQAEDKLDRLFEIIGVKSQEASQTLLDSVYSHLPDLL
modifications: quantum dot label
single-receptor tracking
  fold lower turnover into the monomeric state than DR6 ΔECD: 2.1 fold
  stoichiometry N: 2

B4: SNAP-DR6 (receptor, UniProt O75509 42-655, looked up)
chain: QPEQKASNLIGTYRHVDRATGQVLTCDKCPAGTYVSEHCTNTSLRVCSSCPVGTFTRHENGIEKCHDCSQPCPWPMIEKLPCAALTDRECTCPPGMFQSNATCAPHTVCPVGWGVRKKGTETEDVRCKQCARGTFSDVPSSVMKCKAYTDCLSQNLVVIKPGTKETDNVCGTLPSFSSSTSPSPGTAIFPRPEHMETHEVPSSTYVPKGMNSTESNSSASVRPKVLSSIQEGTVPDNTSSARGKEDVNKTLPNLQVVNHQQGPHHRHILKLLPSMEATGGEKSSTPIKGPKRGHPRQNLHKHFDINEHLPWMIVLFLLLVLVVIVVCSIRKSSRTLKKGPRQDPSAIVEKAGLKKSMTPTQNREKWIYYCNGHGIDILKLVAAQVGSQWKDIYQFLCNASEREVAAFSNGYTADHERAYAALQHWTIRGPEASLAQLISALRQHRRNDVVEKIRGLMEDTTQLETDKLALPMSPSPLSPSPIPSPNAKLENSALLTVEPSPQDKNKGFFVDESEPLLRCDSTSSGSSALSRNGSFITKEKKDTVLRQVRLDPCDLQPIFDDMLHFLNPEELRVIEEIPQAEDKLDRLFEIIGVKSQEASQTLLDSVYSHLPDLL
modifications: SNAP-Surface Alexa Fluor 488 label
[2]
  stoichiometry N: 2

Reference: article doi:10.1101/2024.10.21.619555 (bioRxiv, 2024)
